From patent publication US20230257458A1 (SUNSHINE LAKE PHARMA, published 2023)
Blank lines part the entries; values can stand above or below the binder they belong to.

Experiments:
[1] = target: T1, IL-11 protein (UniProt P20809 22-199, limits assumed); assay: ELISA, monoclonal hybridoma supernatant on IL-11
T1 construct: also called IL-11 antigen
T1 sequence (looked up): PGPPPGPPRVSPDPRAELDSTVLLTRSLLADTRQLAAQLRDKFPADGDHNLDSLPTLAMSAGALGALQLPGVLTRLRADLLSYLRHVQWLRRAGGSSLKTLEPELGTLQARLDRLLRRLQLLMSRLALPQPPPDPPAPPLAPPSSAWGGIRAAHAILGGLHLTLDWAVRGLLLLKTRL
From the text: (§1) Cell lines with high secretion of specific antibody were selected for expanded culture and cryopreservation.

[2] = target: T1, IL-11 protein; assay: flow competition: IL-11 + antibody on IL-11R cells; lower = more blocking
From the text: as §1

[3] = target: T2, IL-11-Fc protein (UniProt P20809 22-199, limits assumed); assay: flow competition: IL-11-Fc + antibody gradient on membrane-IL-11R CHO cells; 3-6A4 antibody
T2 construct: also called IL-11 recombinant protein with Fc tag; not shown: Fc tag
T2 sequence (looked up): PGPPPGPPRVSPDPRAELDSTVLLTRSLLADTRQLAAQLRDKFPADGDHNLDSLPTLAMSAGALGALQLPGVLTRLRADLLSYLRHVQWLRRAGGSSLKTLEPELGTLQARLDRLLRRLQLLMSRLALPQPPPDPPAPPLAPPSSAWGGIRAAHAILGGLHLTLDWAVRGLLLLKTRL
From the text: The secondary antibody used in the detection was a secondary antibody conjugated with a FITC fluorophore (Goat-anti-Fc-FITC) (Abcam, ab98529).

[4] = target: T3, recombinant IL-31 (Peprotech, 200-31) (UniProt Q6EBC2 24-164); assay: ELISA, cytokine coated
T3 sequence (looked up): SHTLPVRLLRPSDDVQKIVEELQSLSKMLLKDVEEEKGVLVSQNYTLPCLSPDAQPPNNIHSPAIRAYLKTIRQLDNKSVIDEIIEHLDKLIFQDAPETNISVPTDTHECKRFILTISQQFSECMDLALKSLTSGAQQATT

[5] = target: T4, recombinant LIF (Peprotech, 300-05) (UniProt P15018 23-202); assay: ELISA, cytokine coated
T4 sequence (P15018 23-202 limits assumed): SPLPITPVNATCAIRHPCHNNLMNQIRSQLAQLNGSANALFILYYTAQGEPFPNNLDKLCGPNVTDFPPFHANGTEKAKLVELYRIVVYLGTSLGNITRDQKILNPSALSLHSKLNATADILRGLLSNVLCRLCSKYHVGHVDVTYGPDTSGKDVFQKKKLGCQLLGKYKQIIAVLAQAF

[6] = target: T5, recombinant IL-27 (R&D systems, 2526-IL-010) (UniProt Q8NEV9 29-243; Q14213 21-229); assay: ELISA, cytokine coated
T5 sequence (looked up) 1: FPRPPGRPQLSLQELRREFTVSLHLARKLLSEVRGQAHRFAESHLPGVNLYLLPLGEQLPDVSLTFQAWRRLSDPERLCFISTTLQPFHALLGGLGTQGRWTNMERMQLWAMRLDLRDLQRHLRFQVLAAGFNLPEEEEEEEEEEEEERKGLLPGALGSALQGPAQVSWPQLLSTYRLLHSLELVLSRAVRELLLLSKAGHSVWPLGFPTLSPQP
T5 sequence (looked up) 2: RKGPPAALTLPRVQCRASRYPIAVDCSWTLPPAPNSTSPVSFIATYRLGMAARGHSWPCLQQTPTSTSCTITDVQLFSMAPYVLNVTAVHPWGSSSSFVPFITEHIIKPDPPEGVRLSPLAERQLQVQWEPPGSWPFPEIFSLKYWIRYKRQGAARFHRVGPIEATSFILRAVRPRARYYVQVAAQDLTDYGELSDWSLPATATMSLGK

[7] = target: T6, recombinant CLC (R&D systems, 962-CL-050) (UniProt Q9UBD9 28-225); assay: ELISA, cytokine coated
T6 sequence (looked up): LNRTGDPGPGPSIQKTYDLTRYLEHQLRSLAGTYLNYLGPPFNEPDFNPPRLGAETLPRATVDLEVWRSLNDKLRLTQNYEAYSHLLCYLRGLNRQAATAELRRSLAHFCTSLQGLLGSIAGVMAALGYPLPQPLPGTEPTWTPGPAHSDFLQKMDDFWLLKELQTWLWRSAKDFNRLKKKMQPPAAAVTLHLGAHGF

[8] = target: T7, recombinant IL-6 (Sinobiological-10395-HNAE) (UniProt P05231 30-212); assay: ELISA, cytokine coated
[9] = target: T8, recombinant CNTF (R&D systems, 257-NT-010) (UniProt P26441 2-200); assay: ELISA, cytokine coated
T8 sequence (looked up): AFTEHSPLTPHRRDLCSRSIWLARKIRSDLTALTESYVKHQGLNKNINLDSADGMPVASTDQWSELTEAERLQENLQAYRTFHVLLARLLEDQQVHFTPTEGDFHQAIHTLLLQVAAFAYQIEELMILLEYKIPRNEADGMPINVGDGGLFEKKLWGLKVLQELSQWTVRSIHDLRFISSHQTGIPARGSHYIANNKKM

[10] = target: T9, recombinant OSM (Genscript-z03132) (UniProt P13725 26-234, limits assumed); assay: ELISA, cytokine coated
T9 sequence (looked up): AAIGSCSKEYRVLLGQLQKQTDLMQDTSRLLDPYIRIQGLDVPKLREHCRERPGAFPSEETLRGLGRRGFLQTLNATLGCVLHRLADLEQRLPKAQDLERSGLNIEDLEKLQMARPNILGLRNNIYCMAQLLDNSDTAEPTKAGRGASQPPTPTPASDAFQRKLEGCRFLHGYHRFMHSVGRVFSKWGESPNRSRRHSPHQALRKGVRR

[11] = target: T10, recombinant CT-1 (R&D systems, 612-CD-010) (UniProt Q16619 2-201, limits assumed); assay: ELISA, cytokine coated
T10 sequence (looked up): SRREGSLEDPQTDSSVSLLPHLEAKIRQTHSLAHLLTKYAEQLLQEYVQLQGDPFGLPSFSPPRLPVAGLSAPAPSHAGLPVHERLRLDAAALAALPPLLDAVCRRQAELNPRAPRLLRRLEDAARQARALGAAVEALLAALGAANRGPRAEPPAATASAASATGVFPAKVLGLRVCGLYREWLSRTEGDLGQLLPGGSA

[12] = target: T11, recombinant IL-11 (LSBio, LS-G132887-10) (UniProt P20809 22-199); assay: ELISA, cytokine coated
T11 construct: also called IL-11 cytokine
T11 sequence (looked up): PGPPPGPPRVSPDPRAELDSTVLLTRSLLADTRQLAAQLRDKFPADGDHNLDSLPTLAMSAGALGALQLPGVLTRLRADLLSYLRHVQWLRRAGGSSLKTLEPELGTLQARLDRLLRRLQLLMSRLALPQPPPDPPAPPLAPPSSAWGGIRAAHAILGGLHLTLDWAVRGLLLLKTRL

[13] = target: T3, recombinant IL-31 (Peprotech, 200-31); assay: ELISA, cytokine coated; remark: listed apart in the source
[14] = target: T4, recombinant LIF (Peprotech, 300-05); assay: ELISA, cytokine coated; remark: listed apart in the source
[15] = target: T5, recombinant IL-27 (R&D systems, …); assay: ELISA, cytokine coated; remark: listed apart in the source
[16] = target: T6, recombinant CLC (R&D systems, …); assay: ELISA, cytokine coated; remark: listed apart in the source
[17] = target: T7, recombinant IL-6 …; assay: ELISA, cytokine coated; remark: listed apart in the source
[18] = target: T8, recombinant CNTF (R&D systems, …); assay: ELISA, cytokine coated; remark: listed apart in the source
[19] = target: T9, recombinant OSM (Genscript-z03132); assay: ELISA, cytokine coated; remark: listed apart in the source
[20] = target: T10, recombinant CT-1 (R&D systems, …); assay: ELISA, cytokine coated; remark: listed apart in the source
[21] = target: T12, recombinant human protein antigen hu-IL-11-His tag (human, UniProt P20809 22-199); assay: BLI, IL-11 (His tag) on Ni-NTA sensor, antibody as analyte
T12 construct: Expressed in CHO, Ni column and Superdex75; not shown: His tag
T12 sequence (looked up): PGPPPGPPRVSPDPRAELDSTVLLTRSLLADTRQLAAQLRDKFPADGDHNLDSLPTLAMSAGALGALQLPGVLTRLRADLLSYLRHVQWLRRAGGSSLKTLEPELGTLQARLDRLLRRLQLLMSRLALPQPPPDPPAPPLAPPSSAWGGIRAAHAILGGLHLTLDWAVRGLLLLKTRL
Method: Bio-Layer Interferometry (BLI) was used for binding affinity determination. […] The analytes were diluted in 7 concentration gradients, the binding time was 60 s and the dissociation time was 1000 s. The buffer was 20 mM PBS, 0.15M NaCl, 0.1% BSA, 0.05% Tween 20, pH 7.

[22] = target: T1, IL-11 protein; assay: SPR (Biacore), IgG captured, IL-11 6.25-400 nM as analyte
Method: The measure method included the steps of capturing the humanized antibody at a flow rate of 10 ul/min. […] Finally the chip was regenerated with 10 mM glycine buffer.

[23] = target: T2, IL-11-Fc protein; assay: flow competition: IL-11-Fc + antibody dilutions on membrane-IL-11R CHO cells
Method: Then the plate was incubated with 1.5*10\hat{ }5 membrane-IL-11R CHO cells (100 ul/well) for 1 h at room temperature. After incubation, the plate was centrifuged at 1500 rpm for 5 min, washed three times with PBS, and 1:400 diluted flow secondary antibody Goat-anti-Fc-FITC (Abcam, ab98529) was added with 200 ul/well. Then, the plate was incubated at 4° C. for 1 h, centrifuged at 1500 rpm for 5 min, washed three times with PBS, resuspended cells in 180 ul PBS, and detected by flow cytometry.

B1: 3-2B5-3D2 (antibody, human IgG1, kappa, V domains shown)
VH: QVQLKQSGPGLVLPSQSLSITCTVSGFSLTSYGVHWFRQSPGTGLEWLGVIWSGGITDYNATFIPRLSISKDNSKSQVFFKMNSLQADDTAIYYCARNFDGYYYSIDYWGQGTSVTVSS
VL: DIQMTQTTSSLSASLGDRVTISCRASQDISNSLNWYQQKPDGTVKLLIYYTSRLHSGVPSRFTGSGSGTDYSLTISNLEQEDIATYFCQQGNTLPLTFGAGTKLELKR
- OD450 [1]: 1.61
- FITC Mean [2]: 15300

B2: 3-6A4 (antibody, human IgG1, kappa, V domains shown)
VH: QIQLVQSGPELKKPGETVKISCKASGYTFTTNGINWVKQAAGKGLKWMGWINTNTGEPTNAEELKGRFAFSLETSASTAYLQINNLKNEDAAIYFCAREGAFGLDYWGQGTSVTVSS
VL: SIVMTQSPKFLLVSAGDRVIITCKASQSVSNDVVWYQQKPGQSPKLLIYYGSHRNTGVPTRFTGSGYGTDFTFTISTVQAEDLAVYFCQQDFFSPWTFGGGTKLEIKR
notes: also called 3-6A4 antibody; 3-6A4 mAb
- OD450 [1]: 1.58
- IC50 [3]: ~7 µg/mL
- FITC Mean [2]: 3040
- OD450 nm [4]: 0.088
- OD450 nm [5]: 0.084
- OD450 nm [6]: 0.035
- OD450 nm [7]: 0.042
- OD450 nm [8]: 0.039
- OD450 nm [9]: 0.064
- OD450 nm [10]: 0.102
- OD450 nm [11]: 0.041
- OD450 nm [12]: 1.88
- binding result [13]: no binding
- binding result [14]: no binding
- binding result [15]: no binding
- binding result [16]: no binding
- binding result [17]: no binding
- binding result [18]: no binding
- binding result [19]: no binding
- binding result [20]: no binding
- Kd [21]: 0.0393 nM
- koff [21]: 4.16e-05 s⁻¹
- kon [21]: 1.06e+06 M⁻¹ s⁻¹

B3: 3-15D5-6A1 (antibody, human IgG1, kappa, V domains shown)
VH: EVKLLESGGGLVQPGGSLKLSCAASGFDFRRYWMSWVRQAPGKGLEWIGQINPDSSMINYTPSLKDKFIISRDNAKNTLYLQMSEVRSEDTALYYCATYGHHATDSWGQGTSVTVSS
VL: DIVLTQSPASLAVSLGQRATISCRASESVDSYGNSFMHWYQQKPGQPPKLLIYRASNLESGIPARFSGSGSRTDFTLTINPVEADDVATYYCQQSNEDPFTFGSGTKLEIKR
- OD450 [1]: 1.51
- FITC Mean [2]: 13600

B4: 3-7C9-1A6 (antibody, human IgG1, kappa, V domains shown)
VH: QVQLKQSGPGLVQPSQSLSITCTVSGFSLTNYGVHWVRQSPGKGLEWLGAIWRGGSTDYNAAFMSRLSITKDNSKSQVFFKMNSLQPDDTAIYYCAKNLYGPAAMDYWGQGTSVTVSS
VL: DIQMNQSPSSLSASLGDTITITCHANQNIYVWLSWYQQKPGNIPKLLIYEASNLHTGVPSRFSGSGSGTGFTLTISSLQPEDIATYYCQQGQSYPYTFGGGTKLEIKR
- OD450 [1]: 1.6
- FITC Mean [2]: 3150

Continued, values first:

- Kd [22]: 12 nM
- koff [22]: 0.000597 s⁻¹
- kon [22]: 49800 M⁻¹ s⁻¹
- EC50 [23]: 11.6 µg/mL
B5: humanized antibody VH1+VL2, full-length (IgG format) (antibody, V domains shown)
VH: QVQLVQSGAEVKKPGASVKVSCKASDYTFTNYWLGWVRQAPGQGLEWMGHIYPGGGYTNYNEKFKGRVTMTRDTSTSTVYMELSSLRSEDTAVYYCARVRSGNDALDFWGQGTLVTVSS
VL: EIVLTQSPATLSLSPGERATLSCRASESVDEYGISFMNWYQQKPGQAPRLLIYSASNQGSGIPARFSGSGSGTDFTLTISSLEPEDFAVYFCQQSKEVPWTFGGGTKLEIK

- Kd [22]: 9.03 nM
- koff [22]: 0.000474 s⁻¹
- kon [22]: 52600 M⁻¹ s⁻¹
- EC50 [23]: 10.5 µg/mL
B6: humanized antibody VH1+VL3, full-length (IgG format) (antibody, V domains shown)
VH: QVQLVQSGAEVKKPGASVKVSCKASDYTFTNYWLGWVRQAPGQGLEWMGHIYPGGGYTNYNEKFKGRVTMTRDTSTSTVYMELSSLRSEDTAVYYCARVRSGNDALDFWGQGTLVTVSS
VL: EIVLTQSPATLSLSPGERATLSCRASESVDEYGISFMNWFQQKPGQAPRLLIYSASNQGSGIPARFSGSGSGTDFTLTISSLEPEDFAVYFCQQSKEVPWTFGGGTKLEIK

- Kd [22]: 10 nM
- koff [22]: 0.000545 s⁻¹
- kon [22]: 54300 M⁻¹ s⁻¹
- EC50 [23]: 12.5 µg/mL
B7: humanized antibody VH1+VL4, full-length (IgG format) (antibody, V domains shown)
VH: QVQLVQSGAEVKKPGASVKVSCKASDYTFTNYWLGWVRQAPGQGLEWMGHIYPGGGYTNYNEKFKGRVTMTRDTSTSTVYMELSSLRSEDTAVYYCARVRSGNDALDFWGQGTLVTVSS
VL: EIVLTQSPATLSLSPGERATLSCRASESVDEYGISFMNWFQQKPGQAPRLLIYSASNQGSGIPARFSGSGSGTDFTLTISSLEPEDFAMYFCQQSKEVPWTFGGGTKLEIK
